Measurements published in patent US20090124791A1.

Columns and labels:
[1] = target: human B7.1 antigen (CD80) on cells (human) (UniProt P33681); assay: competition on B7.1 transfected CHO cells; competitor L307.4 (FIG. 8)
[2] = target: human B7.1 antigen (CD80), form not stated (human) (UniProt P33681); assay: surface plasmon resonance
[3] = target: B7.1/Ig fusion protein (human) (UniProt P33681); assay: competition of 125I-B7.1Ig binding to CD28 positive peripheral blood T lymphocytes
[4] = target: B7.1/Ig fusion protein (human) (UniProt P33681); assay: cell-based or functional assay

Chain of B7.1/Ig fusion protein (human) (P33681 35-242): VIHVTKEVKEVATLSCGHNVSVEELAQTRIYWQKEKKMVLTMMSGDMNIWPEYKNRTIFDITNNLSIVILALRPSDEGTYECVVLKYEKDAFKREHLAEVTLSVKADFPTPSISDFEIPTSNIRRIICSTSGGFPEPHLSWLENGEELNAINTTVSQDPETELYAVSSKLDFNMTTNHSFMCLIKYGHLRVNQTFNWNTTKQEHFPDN
Chain of human B7.1 antigen (CD80), form not stated (human) (P33681 35-242 limits assumed): as the sequence (P33681 35-242) above
Chain of human B7.1 antigen (CD80) on cells (human) (P33681 35-288): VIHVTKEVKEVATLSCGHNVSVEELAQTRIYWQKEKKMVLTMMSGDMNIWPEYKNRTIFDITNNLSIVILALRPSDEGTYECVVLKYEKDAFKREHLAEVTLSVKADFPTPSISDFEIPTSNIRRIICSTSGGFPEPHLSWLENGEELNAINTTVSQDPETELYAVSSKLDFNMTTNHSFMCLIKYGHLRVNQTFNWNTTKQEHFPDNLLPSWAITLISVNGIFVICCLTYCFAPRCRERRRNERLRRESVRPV

Substance	cross-reactivity (competition) with L307.4 [1] [%]	Kd [2] [nM]	IC50 [3] [µg/mL]	concentration for equivalent blocking of IL-2 against CTLA-4Ig, beads anti-CD3/B7 8:1 [4] [fold]	inhibition of IL-2, CD4+ T cells with anti-CD3/B7-Ig beads (8:1) [4] [%]
BB-1 murine anti-B7 antibody	50				
primatized 16C10 (IDEC-114) (antibody)		4	< 1	10	50 to 90
